According to patent CN113637078A (WEST CHINA HOSPITAL SICHUAN UNIV, dated 2021):

Key:
[1] = target: T1, 蛋白激酶p38δ with 2×Strep tag (pET28a-p38δ-2×Strep) (Homo sapiens (Human), UniProt O15264 1-365); test: indirect ELISA, p38δ coated, nanobody at 0-6.4 μM, anti-FLAG detection, 4-parameter fit
T1 construct: Recombinant, from E. coli BL21(DE3); The tag is placed at the C-terminus only on the strength of the vector name pET28a-p38γ/p38δ-2×Strep; Linkers and other vector residues are not described; not shown: 2×Strep tag
T1 sequence: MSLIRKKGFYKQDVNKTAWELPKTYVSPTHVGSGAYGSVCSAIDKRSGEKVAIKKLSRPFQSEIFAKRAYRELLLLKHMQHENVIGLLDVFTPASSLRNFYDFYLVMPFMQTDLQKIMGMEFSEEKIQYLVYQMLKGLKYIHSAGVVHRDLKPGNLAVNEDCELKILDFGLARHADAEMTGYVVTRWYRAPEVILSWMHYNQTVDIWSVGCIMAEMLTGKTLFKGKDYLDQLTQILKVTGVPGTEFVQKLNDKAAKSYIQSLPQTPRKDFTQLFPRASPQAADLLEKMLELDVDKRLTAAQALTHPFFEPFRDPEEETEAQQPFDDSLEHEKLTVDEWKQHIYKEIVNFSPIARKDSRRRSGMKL

[2] = target: T2, p38γ with 2×Strep tag (pET28a-p38γ-2×Strep) (Homo sapiens (Human), UniProt P53778 1-367); test: ELISA, antigen coated on plate, periplasmic extract of the nanobody, anti-FLAG detection, OD450
T2 construct: Recombinant, from E. coli BL21(DE3); The tag is placed at the C-terminus only on the strength of the vector name; not shown: 2×Strep tag
T2 sequence: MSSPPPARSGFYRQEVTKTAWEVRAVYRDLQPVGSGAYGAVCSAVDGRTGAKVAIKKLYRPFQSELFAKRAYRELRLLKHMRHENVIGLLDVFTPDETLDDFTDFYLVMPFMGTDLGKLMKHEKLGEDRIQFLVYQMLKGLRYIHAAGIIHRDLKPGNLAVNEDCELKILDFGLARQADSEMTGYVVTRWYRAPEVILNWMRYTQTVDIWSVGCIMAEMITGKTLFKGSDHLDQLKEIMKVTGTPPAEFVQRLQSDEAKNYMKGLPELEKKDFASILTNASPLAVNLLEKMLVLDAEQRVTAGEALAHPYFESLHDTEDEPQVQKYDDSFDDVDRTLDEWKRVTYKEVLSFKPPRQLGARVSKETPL

[3] = target: p38α (UniProt Q16539 1-360, limits assumed); test: as above
p38α, sequence (Q16539 whole entry): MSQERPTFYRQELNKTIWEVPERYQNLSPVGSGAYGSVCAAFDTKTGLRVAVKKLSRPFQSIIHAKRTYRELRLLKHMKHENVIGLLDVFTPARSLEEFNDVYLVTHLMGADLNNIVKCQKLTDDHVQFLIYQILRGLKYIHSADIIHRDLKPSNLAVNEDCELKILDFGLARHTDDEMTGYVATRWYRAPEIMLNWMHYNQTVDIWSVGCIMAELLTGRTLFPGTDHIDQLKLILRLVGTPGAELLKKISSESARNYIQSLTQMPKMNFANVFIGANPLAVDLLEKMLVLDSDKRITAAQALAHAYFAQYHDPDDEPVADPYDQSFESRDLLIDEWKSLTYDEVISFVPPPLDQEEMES

[4] = target: p38β (UniProt Q15759 1-364, limits assumed); test: as above
p38β, sequence (Q15759 whole entry): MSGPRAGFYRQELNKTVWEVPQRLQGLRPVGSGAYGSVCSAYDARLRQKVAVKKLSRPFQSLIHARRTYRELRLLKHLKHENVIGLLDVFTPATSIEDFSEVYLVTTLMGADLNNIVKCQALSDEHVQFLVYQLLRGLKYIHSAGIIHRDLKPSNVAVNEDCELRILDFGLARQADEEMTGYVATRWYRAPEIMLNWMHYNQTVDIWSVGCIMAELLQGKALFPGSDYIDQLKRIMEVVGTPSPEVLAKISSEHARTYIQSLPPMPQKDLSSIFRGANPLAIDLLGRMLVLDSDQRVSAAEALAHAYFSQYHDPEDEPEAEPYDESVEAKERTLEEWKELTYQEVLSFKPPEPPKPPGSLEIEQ

Kd [1]: 499 nM
binding result [2]: no binding
binding result [3]: no binding
binding result [4]: no binding
B1: 纳米抗体Nb13-6 (nanobody against protein kinase p38δ), C-terminal FLAG tag (VHH)
VHH: QVQLVESGGALVQPGGSLRLSCAASGLEPSMFSLRWYRQAPGKEREWVCGISKWFDDMSYEDSVKGRFTCSRDDARNTVYLQLNSLKPEDTAVYYCASLRPTFLPGLMRTRYWGQGTQVTVSS
notes: Expressed from pET22b in E. coli BL21(DE3); Used mostly as periplasmic extract; Other vector-derived residues are not described; also called 针对蛋白激酶p38δ的纳米抗体; not shown: FLAG tag fused at the C-terminus
